Like-named read-outs stand apart in the source and are kept apart here.
Key:
[1] = system: Immunoglobulin E (human myeloma IgE) (Homo sapiens); conditions: fluorescence bead binding assay, 30 min incubation, wash, thermal elution at 95 C; monovalent binding assumed; enriched pool, individual sequences not given
[2] = system: Immunoglobulin E (human myeloma IgE) (Homo sapiens); conditions: nominal Kd, no asymptote reached; described as negligible binding; fluorescence bead binding assay

Row | Sequence | Kd [1] [nM] | Kd [2] [nM]
1 | GCCTGTTGTGAGCCTCCTGTCGAANNNNNNNNNNNNNNNNNNNNNNNNNNNNNNNNNNNNNNNNNNNNNTTGAGCGTTTATTCTTGTCTCCC [round-4 enriched IgE aptamer pool] | 12 | 
2 | GCCTGTTGTGAGCCTCCTGTCGAANNNNNNNNNNNNNNNNNNNNNNNNNNNNNNNNNNNNNNNNNNNNNTTGAGCGTTTATTCTTGTCTCCC [randomized 45N library] |  | 620

— patent US20170067091
